The results in this text go back to the DeepSol protein solubility set.

A short description of the series: soluble on expression in E. coli; label from the status in PepcDB or PDB records.
As to “MSASVSDPYEQMPAAPTDDDLEDKPEADKKALLNQVFKSLKRAQDLFYHDYAQPPPMPEENDSLIRSMKRKHEYGNVIKKVEEMKVRRENEMLALPTSQPMHGTGSVIASAGTPLAITDGSGKLVNQQQGSAKSGTLLPLVPLGNSSKGEDNTTRSLLPSKAPMMMKPKWHAPWKLYRVASGHTGWVRAVDVEPGNQWFASGGADRIIKIWDLASGQLKLSLTGHISSVRAVKVSPRHPFLFSGGEDKQVKCWDLEYNKVIRHYHGHLSAVQALSVHPSLDVLVTCARDSTARVWDMRTKAQVHCFAGHTNTVADVVCQSVDPQVITASHDATVRLWDLAAGRSMCTLTHHKKSVRALTIHPRLNMFASASPDNIKQWKLPKGEFMQNLSGHNAIINTLSSNDDGVVVSGADNGSLCFWDWRSGFCFQKIQTKPQPGSIESEAGIYASCFDKTGLRLITAEADKTIKMYKEDDEATEESHPIVWRPEIVKKKAY”, the “soluble on expression in E. coli” value is on record as “not soluble”.
Take “DADAEFDIVIGNIEDIIMEDEFQHLQQSFMEKYYLEFDDSEENKLSYTPIFNEYIEILEKHLEQQLVERIPGFNMDAFTHSLKQHKDEVSGDILDMLLTFTDFMAFKEMFTDYRAEKEGRG”: the “soluble on expression in E. coli” value is listed as “soluble”.
Take “MIVSWRHKGLKAFFETGSSSGIRADHSKRLAHVLAVLNRARTPANVNMPGWRLHPLKGELEGFWSITINANWRIIFRFFDTDVELVDYLDYH”: the “soluble on expression in E. coli” value is “not soluble”.
On to “MGSDKIHHHHHHMMNSFYNGISGVKSNSFGIDITANNIANVNTTGFKYSDAQFKDIFYTTITTQSTNPAQGGYGSGAASSQVVFEQGSPVASDGEFDVALQGKGFFGVLGADGNAYYTRNGSFRRDANGYLVDSYGNFVLGTMNPAFTGINYSDRVAGLMGDYLNTGTPVNNGFTVNSNNSFSIGTTASQGAIKVPVNMYLPPQVTQNVKWSGSLNTNTTTEVVKVDLDPSKFNITKTEDGKYVVSGSVSKEDVFSAKAGDRIILNFTDDNGVKTSFEATLDENLNFKSNELDLKGLDENSIKLDTAQISTEQQKANKDILESPIYNADGSKSTLRVTLERVLPQEGDNIQYKAIAQIYDSNGNAVGNPTEGNMVFDKNGALLQNNITSIANPNGGTINIDLGSPYDANKPGSGYSGIYIKQGVEKNVVTQQDGVAEGFFEQYNISDDGSIVAQFSNGKNAIVGKLALYNFINEQGLVAMGDNIFAATANSGDASFIMKDGQVVNTAKFKGGFLEQSNVDLSAELSNLIVTQKAFDASSKSITTSDQMIQKAINMKR”, for which the “soluble on expression in E. coli” value is “not soluble”.
For “MSLKITKVEVIPISTPMKRAQLMRGATLARIDGVLLKLHSDEGLVGIADAGDTSSWYRGETQDSITSMICDFFAPKVLLGEDPTKIEKIVGRMDILTRDNNQAKATVDFALHDLVGKRFGVPVYQLLGGKTIERIPLGLVLGAGEPEAVAEEALAVLREGFHFVKLKAGGPLKADIAMVAEVRRAVGDDVDLFIDINGAWTYDQALTTIRALEKYNLSKIEQPLPAWDLDGMARLRGKVATPIYADESAQELHDLLAIINKGAADGLMIKTQKAGGLLKAQRWLTLARLANLPVICGCMVGSGLEASPAAHLLAANDWIAQFPQENAGPLHIHDCLNSRDIDNDIALNVPRFEGGYLYPNDGPGLGIELNEDLVRRLVTPGKAARVVTAEGHHHHHH”, the “soluble on expression in E. coli” value was “soluble”.
Then “PTIFEERHLKYISQLGKGNFGSVELCRYDPLGDNTGALVAVKQLQHSGPDQQRDFQREIQILKALHSDFIVKYRGVSYGPGRPELRLVMEYLPSGCLRDFLQRHRARLDASRLLLYSSQICKGMEYLGSRRCVHRDLAARNILVESEAHVKIADFGLAKLLPLDKDYYVVREPGQSPIFWYAPESLSDNIFSRQSDVWSFGVVLYELFTYCDKSCSPSAEFLRMMGCERDVPALCRLLELLEEGQRLPAPPACPAEVHELMKLCWAPSPQDRPSFSALGPQLDMLWSGSR”, with “soluble”; and “MSYPLFDKDEHWHKPEQAFLTDDHRTILRFAVEALMSGKGAVLVTLVEIRGGAARPLGAQMVVREDGRYCGFVSGGCVEAAAAFEALEMMGSGRDREIRYGEGSPWFDIVLPCGGGITLTLHKLRSAQPLLAVLNRLEQRKPVGLRYDPQAQSLVCLPTQTRTGWNLNGFEVGFRPCVRLMIYGRSLEAQATASLAAATGYDSHIFDLFPASASAQIDTDTAVILLCHDLNRELPVLQAAREAKPFYLGALGSYRTHTLRLQKLHELGWSREETTQIRAPVGIFPKARDAHTLALSVLAEVASVRLHQEEDSCLPPSS”, with “not soluble”.
Turning to “MRKLVIPKYYGRPSIGLALFGCTNRPFYHVCVFPDRALGRRYEGNILEQVGTFDPLPNQKNEKLVALNFGRLKYWIGERNAHISVPVLELLGERRNCLSGLFPIHPKSFIRAKDNRALIADQQLKVAAEAAEAEKVAQEQASTGAAATSHPQ”, the “soluble on expression in E. coli” value is given as “not soluble”.
